The DeepSol protein solubility set

Assay: soluble on expression in E. coli; label from the status in PepcDB or PDB records

Row | Sequence | soluble on expression in E. coli
1 | MGSDKIHHHHHHMVIAVRRILIREEYCMGCKLCEINCVAAQVGTGNLIKVYRYVPELPEPNVIVEEHDYVTFALQCRNCDDPSCLKACMTGAMHRDPKTGAIRVNQEKCVGCWMCVMACPFGVIRRNTKEKKVASKCDLCADRGTPGCVEGCPNEALVLVEVRE | not soluble
2 | MEDIIFGKRSNVFDVNPENTVFVLIAGTSEVSTVPGITSAGATPELTRLTPAIDSEIIGEGKCLSSKDPPMTPEGIPTPAIVTKAILSLTNIRYIIVNGGFYAKPKTPFIETGLKPSNNPAVKTAIEDLDAAIHAGEHIGRLLDGVFENIILAESVPGGTTTAYAVLKAIGINAKTSSSMKEDPFSIKEKIAEMSFRRKLEKSPLGAVKEYGDNMMAVSLGISSSVKRSKIIFGGGTQMATVMYLDRLINGMRDRYISTTGWVYYHRTELFSDLGLSDYLAVSAMDFSGMKHPGLRYYQYGHVREGTGMGAAFLLARLMNFEAEAIYKSVDDFYEQFI | not soluble
3 | MSSVSEVNVDIKDFLMSINLEQYLLHFHESGFTTVKDCAAINDSLLQKIGISPTGHRRRILKQLQIILSKMQDIPIYANVHKTKKNDDPSKDYHVPSSDQNICIELSNSGSVQTSSPPQLETVRKNLEDSDASVERSQYPQSDDKLSPPKRDFPTAEEPHLNLGSLNDSLFGSDNIKIESLITKKTVDHTVEEQQTEKVKLITENLSKLPNADSECLSFVGCSTSGTNSGNGTNGLLEGSPPSPFFKFQGEMIVNDLYVPSSPILAPVRSRSKLVSRPSRSFLLRHRPVPEIPGSTKGVSGSYFRERRNVATSTEKSVAWQNSNEENSSSIFPYGETFLFQRLENSKKRSIKNEFLTQGEALKGEAATATNSFIIKSSIYDNRKEKISEDKVEDIWIPREDKNNFLIDTASESEYSTVEECFQSLRRKNSKASKSRTQKALILDSVNRHSYPLSSTSGNADSSAVSSQAISPYACFYGASAKKVKSGWLDKLSPQGKRMFQKRWVKFDGLSISYYNNEKEMYSKGIIPLSAISTVRVQGDNKFEVVTTQRTFVFRVEKEEERNDWISILLNALKSQSLTSQSQAVVTPEKCGYLELRGYKAKIFTVLSGNSVWLCKNEQDFKSGLGITIIPMNVANVKQVDRTVKQSFEIITPYRSFSFTAETEKEKQDWIEAVQQSIAETLSDYEVAEKIWFNESNRSCADCKAPDPDWASINLCVVICKKCAGQHRSLGPKDSKVRSLKMDASIWSNELIELFIVIGNKRANDFWAGNLQKDEELHMDSPVEKRKNFITQKYKEGKFRKTLLASLTKEELNKALCAAVVKPDVLETMALLFSGADVMCATGDPVHSTPYLLAKKAGQSLQMEFLYHNKFSDFPQHDIHSEGVLSQESSQSTFLCDFLYQAPSAASKLSSEKKLLEETNKKWCVLEGGFLSYYENDKSTTPNGTININEVICLAIHKEDFYLNTGPIFIFEIYLPSERVFLFGAETSQAQRKWTEAIAKHFVPLFAENLTEADYDLIGQLFYKDCHALDQWRKGWFAMDKSSLHFCLQMQEVQGDRMHLRRLQELTISTMVQNGEKLDVLLLVEKGRTLYIHGHTKLDFTVWHTAIEKAAGTDGNALQDQQLSKNDVPIIVNSCIAFVTQYGLGCKYIYQKNGDPLHISELLESFKKDARSFKLRAGKHQLEDVTAVLKSFLSDIDDALLTKELYPYWISALDTQDDKERIKKYGAFIRSLPGVNRATLAAIIEHLYRVQKCSEINHMNAHNLALVFSSCLFQTKGQTSEEVNVIEDLINNYVEIFEVIILYPALVKMVIMSLFANKYLCC | soluble
4 | MYLQLLKPTLLRCSTRPSSSGAYTRSPIDQKWAAMAKKAMKGREADTLTWNTPEGIPIKPLYLRSDRDCDAQRSVELPGQFPFTRGPYPTMYTQRPWTIRQYAGFSTVEESNKFYKENIKAGQQGLSVAFDLATHRGYDSDNPRVFGDVGMAGVAVDSVEDMRQLFDGINLEKMSVSMTMNGAVVPVLAMYVVAAEEAGVSRKLLAGTIQNDILKEFMVRNTYIYPPEPSMRIIGDIFAYTSREMPKFNSISISGYHMQEAGADAVLEMAFTIADGIQYCETGLNAGLTIDAFAPRLSFFWGISMNFYMEIAKMRAARRLWANLIKERFSPKSDKSMMLRTHSQTSGWSLTEQDPYNNIIRTTIEAMASVFGGTQSLHTNSFDEALGLPTKFSARIARNTQIIIQEESGICNVADPWGGSYMMESLTDEIYEKALAVIKEIDELGGMAKAVASGMTKLKIEEAAAKKQARIDAGKDVIVGVNKYRLDHEQQVEVLKIDNAKVREEQCAKLNHIRATRDAEKAQKALDAITEGARGNGNLMELAIEAARARCTVGEISDAMEKVFNRHAAVNRLVSGAYKSEFGETSEMSQVLERVKSFADRDGRQPRIMVAKMGQDGHDRGAKVIATGFADLGFDVDVGPLFQTPLEAAQQAVDADVHVIGASSLAAGHLTLIPQLIGELKKLGRPDILVVAGGVIPPQDYKELYDAGVALVFGPGTRLPACANQILEKLEANLPEAPGKAASR | not soluble
5 | HHHHHHGSQEAPHFKPGEDPRQPHQEWKLIENMSDEFEGKKIDEKKWQISGQGWIGRAPGLFLAENISLNNGSLQITTTMLPEPIVKNNKTYTHGGGYVGSRNGMTYGYYECEMKANKTFMSSTFWLINEGKDRLGCDKRTTELDIQESVGQITNDADWMKYFDQTMNSNTHSRNIPEGCEYEKGSSKGKAELGGKAYEDFHVYGVWWKSKDEIIFFLDGKMQSKVTPPADFDIEMYLRMVVETYDWNPVPKDGGMTGSKEDRTTTYNWVRSWQLVDSKN | soluble
6 | MGSDKIHHHHHHMKKTYVLDTNVLLHDPMALFRFEDNDLVIPITVIEEIDRFKKDLNERGRNARQISRLLDGFRSKGHLIEGITLDHGGKLRVVMLEKTFLEQLPSGLIANANDNAILAVALALQQQNGQPTILVTKDTNLRIKADATGLCAEDYESDKIDFSELYSGTAEVYLAPDQLQVFRREGGLDLSGEFFPNQALTLVDETNLSHTLLGRYRASDRRVVPLIQPPKMGISRIHARNREQQFALDLLLDDNIQLVTLVGKAGTGKTLLAVAAGLHKVADERHFSRLLVSRPIFPMGRDLGFLPGDLQEKLAPWMQPIIDNLDFILGGANNNGDRPSNKQQNYQDLMGMNLLQIEPLTYIRGRSIPRQFMIVDEAQNLTPHEIKTILTRAGEGTKIVLTGDAYQIDNPYVDASSNGLTYVVEKFKNEAIAGHITLERGERSPLAELSANLL | not soluble
7 | MGSDKIHHHHHHMQKHNIKRDCCKLLYLLICNSLFYRRSIMGVKVVKDLVYSYIEIDESVQKLIDTASFQRLKRIKQLSSSYIFPSTNHTRYEHSIGVMHLACNFFEVLEKDFRKYGLTEDRISYLRLHIKLAGLLHDVGHPPFSHLGEKFLDKNEIIACIKNEYSHLVDVDKTFYNNGRLIGKEHELLSCYCILRKFYKILKEEIDKNIDVAFICRCIIGNTYPDSENWDKNICVRIISSDSIDVDKLDYLTRDNHMTGEIAPKMDIKRLLACLTITENKELKYVAKAIPAVQTVVDSRDILYLWVYHHHISIYTDYIIGRILKRCMTLYDEHRGQALEEMNREEYFSPKAITDYLITDDDIYSHLRKIYVLSLEGKVDDFNTIIIKQIFERDFLKPLWKTIYEYKDFEKNLVDKKIIKSYDELEDILKNEKNIEDITNTLLKKLNLKEGEVFIITKYNKFYNSNKEAPISLLLNGEERKLSDLLPQKEFGKFHTMAFFVFVPKKYKKEAKEIVIEELQKISQT | not soluble
8 | MDNPVTFSDITLLNTLATCANMTTDEVFKDFKIMANKKILKNHKYEIYYSESEKSWRTYLPDETKPNKRRPVKRKSKENLEKEIIRFYIEKQKAENRQNVTLEELYAEWLLYKRDYTSVKAKTIQEYVSEWNRFFKDTELVKMKIGEIKPITLIRFFREATKDRQFTHKRVSNARSVLNGIMSYAIEEEIISHNPVSDVNFKQFTYKPVEVQSDNVFSRDDTHKLLNYLRCIIEPYSLAIQLSFYLFIRVGETKAIRWEDIDYNNRLVYFHRQATCERTLNDDLTFSSRKVKVVNQMKGNTSHGFRKQFLTDEALKILHKAKELNPNGIYVFEPNGEIMTTDSFNRRLKKYCKEAGVPYHSSHKIRFYNASTAFDGNNLTTLSYLMGHSETATTLHYLRNVNKRKNDRLAFQNLGISS | not soluble
9 | SAEGEEEGGDVLISVGHANVLGYTLREFLQLLQHITIGTVLQIKVYRDFINIPEEWQEIYDLIPEAKFPVTSTPKKIELAKDESFTSSDDNENVDLDKRLQYYRYPWSTVHHPARRPISISRDWHGYKKKNHTISVGKDINCDVMIHRDDKKEVRAPSPYWIMVKQDNESSSSSTSSTSDAFWLEDCAQVEEGKAQLVSKVG | soluble
